Results on 11 molecules are retold here after patent publication US20200339680A1 (Alector, published 2020).

In assay [1] the target is T1, human TMEM106B (human, UniProt Q9NUM4 2-274).
T1 construct: full-length, transiently expressed on HEK293 cells, or natively expressed on HeLa, U251 and A549 cells (the cell is named under assay); also the source of the Pepscan peptides; also called huTMEM106B; huTMEM
Put plainly: FACS A549 1 ug/ml.
Protocol: (§1) Purified anti-TMEM106B antibodies were evaluated for their binding affinity to various TMEM106B-expressing cell lines including HEK293 transiently transfected with human/cyno/mouse TMEM106B, as well as HeLa cells and A549 cells. Antibodies tested for this experiment were mouse IgGs purified from hybridoma supernatant. Affinity binding to cells was determined as follows. Briefly, 1×10\hat{ }5 cells were aliquoted per well in 96-well round bottom plates and incubated with 50 μL of purified anti-TMEM106B antibody at various concentrations (10× dilutions starting at 10 μg/ml) in FACS buffer (PBS+2% FBS+1 mM EDTA). […] Sorting was performed on a iQue (Intellicyt), with sort gates drawn to exclude dead (propidium iodide+) cells. Binding data was analyzed using median fluorescent intensity (MFI) and graphed in Prism. Values presented are MFI.

Assay [2] deals with T1, human TMEM106B. Put plainly: FACS HEK+huTMEM 0.1 ug/ml.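 Further: flow cytometry binding of purified mouse IgG antibodies to HEK293 cells transiently expressing TMEM106B, read as median fluorescence intensity on live cells (propidium iodide negative gating).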
Protocol: as §1
A further assay concerns the target T2, mouse TMEM106B (mouse, UniProt Q80X71 2-275).
T2 construct: transiently expressed on HEK293 cells, or native on mouse Neuro2a cells; also called moTMEM106B; murine TMEM106B
Briefly: FACS Neuro2a.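 Further: flow cytometry of antibody binding to cells: hybridoma supernatant or purified antibody at 10 µg/ml, 1 h on ice, secondary detection, propidium iodide–positive dead cells gated out.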

In assay [3] the target is T1, human TMEM106B. Briefly: FACS HEK+huTMEM 0.1 ug/ml (2nd column so headed).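 Further: flow cytometry binding of purified anti-TMEM106B mouse IgG to HEK293 cells transiently transfected with TMEM106B, read as median fluorescence intensity on live (propidium iodide-negative) cells.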
Protocol: as §1
In assay [4] the target is T1, human TMEM106B. Put plainly: FACS U251.
Assay [5] deals with T1, human TMEM106B. Briefly: FACS HeLa.
Protocol: (§2) All cells were cultured in either T75 or T150 flasks. […] The enzyme was quenched by addition of fresh media, and the cells were then distributed into 96-well plates for FACS analysis.
(§3) FACS analysis was performed as follows. Each cell type was aliquoted in 96-well round bottom plates (2×10^5 cells per well), washed once with FACS buffer (PBS+2% FBS+1 mM EDTA), and incubated with 50 μL of hybridoma supernatant or purified antibody (10 μg/ml in FACS buffer) on ice for 1 hour. […] Following this secondary incubation, the cells were again washed 2× with ice-cold FACS buffer and resuspended in a final volume of 50 μL of FACS buffer+0.25 μl/well propidium iodide (Fisher Scientific #4BDB556463). Analysis was performed on a FACSCanto system (BD Biosciences) or iQue (Intellicyt), with sort gates drawn to exclude dead (i.e., propidium iodide positive) cells.
Assay [6] addresses T1, human TMEM106B. Briefly: FACS HEK+huTMEM 1.0 ug/ml.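 Further: binding of purified mouse IgG antibodies to HEK293 cells transiently expressing human TMEM106B, read by flow cytometry as median fluorescence intensity of live, propidium iodide-negative cells.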
Protocol: as §1
The target of assay [7] is T1, human TMEM106B. Briefly: FACS A549.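 Further: flow cytometry of cells incubated on ice for 1 h with hybridoma supernatant or purified antibody at 10 µg/mL, dead propidium iodide-positive cells gated out.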
Protocol: as §2, §3
The target of assay [8] is T1, human TMEM106B. Briefly: FACS HEK+huTMEM 10 ug/ml.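 Further: flow cytometric binding of purified mouse IgG antibodies to HEK293 cells transiently expressing human TMEM106B, read as median fluorescence intensity on live cells with propidium iodide-positive cells excluded.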
Protocol: as §1
The target in assay [9] is T1, human TMEM106B. Briefly: FACS A549 10 ug/ml.
Protocol: as §1

B1: TM-7 (antibody, V domains shown)
VH: EVQLQQSGPVLVKPGPPVKISCKASGFTFTDYYIHWVKLSHGKSLEWIGLVYPYNGDTDYNQKFKGKATLTVDTSSSTAYMELNSLTSEDSAVYYCARTYYANSPDYWGQGTTVTVSS
VL: DIVMTQSPSSLSVSAGEKVTMSCKSSQSLLNSGNQRNYLAWYQQKPGQPPKLLIYGASTRESGVPDRFTGSGSGTDFTLTISNVQAEDLAVYYCQNDHSYPLTFGAGTKLELK
B1: the MFI with human TMEM106B [1] amounted to 883 MFI; with human TMEM106B [2] it was 9870 MFI; with mouse TMEM106B it was 1200 MFI; with human TMEM106B [3], 1670 MFI; with human TMEM106B [4] it was 442 MFI; with human TMEM106B [5], 1070 MFI. Further, the MFI stood at 40000 MFI in the assay with human TMEM106B [6], 647 MFI with human TMEM106B [7], 40800 MFI in the assay with human TMEM106B [8] and 1810 MFI with human TMEM106B [9].

B2: TM-6 (antibody, V domains shown)
VH: QVQLQQSGAELVKPGASVKLSCKASGYTFTEYTIHWVKQRSGQGLEWIGWFYPGSTYIDYNEKFKDKATLTADKSSSTVYLELSRLTSEDSAVYFCARHEEDYSNWFPFWGQGTLVTVSA
VL: DIQMSQSSSYLSVSLGGRVTITCKASDHINNWLAWYQQKPGNAPRLLISGATSLETGVPSRFSGSGSGKDYTLSITSLQTEDVATYYCQQYWSSPYTFGGGTKLEIK
notes: mouse IgG (hybridoma)
As for B2, the MFI was determined as 418 MFI with human TMEM106B [1]; 327 MFI with human TMEM106B [2]; 371 MFI with mouse TMEM106B; 294 MFI with human TMEM106B [3]; 304 MFI with human TMEM106B [4]; 520 MFI with human TMEM106B [5]. The MFI is 393 MFI in the assay with human TMEM106B [6], 1100 MFI in the assay with human TMEM106B [7], 581 MFI with human TMEM106B [8] and 544 MFI in the assay with human TMEM106B [9].

B3: TM-2 (antibody, V domains shown)
VH: HIQLVQSGPELKKPGETVKISCKASGYTFTEYPMHWVKQAPGKGFRWMGMIYTNTGEPTYAAEFKGRFAFSLETSASTGYLQINNLKNEDSATYFCVTAGYWGQGTLVTVSA
VL: QIVLTQSPAILSASPGEKVTMTCRASSSVSYIHWFLQKPGSSPKPWIYATSNLASGVPFRFIGSGSGTSYSLTISGVEAEDSATYYCQQWSSNPSTFGAGTKLELK
For B3, the MFI with human TMEM106B [1] turned out to be 1090 MFI; in the assay with human TMEM106B [2] it was 4730 MFI; with mouse TMEM106B, 2900 MFI; with human TMEM106B [3], 1440 MFI; in the assay with human TMEM106B [4] it was 1410 MFI; in the assay with human TMEM106B [5], 2530 MFI. The MFI came out at 29300 MFI in the assay with human TMEM106B [6], 1890 MFI with human TMEM106B [7], 55500 MFI in the assay with human TMEM106B [8] and 3360 MFI in the assay with human TMEM106B [9].

B4: TM-1 (antibody, V domains shown)
VH: QVQLQQSGAELVRPGTSVKVSCKASGYAFTNYLIEWVKQRPGQGLEWIGVINPGSGGTKYNEKLKGKATLTADKSSSTAYMQLSSLTSVDSAVYFCARRGYTIYDFYAMDYWGQGTSVTVSS
VL: DVLMTQTPLSLPVSLGDHASISCRSSQSIVYNNGNTYLEWYLQKPGQSPKLLIYKVSNRFSGVPDRFSGSGSGTDFTLKISRVEAEDLGVYYCFQVSHVPFTFGSGTKLEIK
As to B4, the MFI amounted to 364 MFI with human TMEM106B [1]; 1330 MFI with human TMEM106B [2]; 253 MFI in the assay with mouse TMEM106B; 655 MFI with human TMEM106B [3]; 244 MFI with human TMEM106B [4]; 253 MFI with human TMEM106B [5]. For the same molecule, the MFI with human TMEM106B [6] is 2010 MFI; with human TMEM106B [7], 1460 MFI; with human TMEM106B [8], 2380 MFI; in the assay with human TMEM106B [9], 409 MFI.

B5: TM-5 (antibody, V domains shown)
VH: QVQLQQSGTELARPGASVKVSCKASGYIFTTYGITWVKQRGGQGLEWIGEIYPRSDNTYYNEKFKDKATLTADKSSSTAYMELRSLTSEDSAVYFCARSKGSGTGDYWGQGTTVTVSS
VL: DIQMTQSPASLSASVGETVTITCRASENIYIYLAWYQQKQGKTPQLLVYNGKMLAENVPSRFSGSGSGTQFSLKINSLQPEDFGSYYCQHHYGSPPAFGAGTKLELK
Regarding B5, the MFI in the assay with human TMEM106B [1] is 1970 MFI; with human TMEM106B [2], 10800 MFI; in the assay with mouse TMEM106B, 1610 MFI; with human TMEM106B [3] it was 2180 MFI; with human TMEM106B [4] it was 866 MFI; with human TMEM106B [5], 1740 MFI. In addition, the MFI with human TMEM106B [6] was 64500 MFI; in the assay with human TMEM106B [7], 1170 MFI; with human TMEM106B [8], 59300 MFI; in the assay with human TMEM106B [9], 4800 MFI.

B6: TM-8 (antibody, V domains shown)
VH: QIQLVQSGPELKKPGETVKISCKASGYTFTDYPMHWVKQAPGKGFKWMGVIYTDTGEPKYAEVFKGRFAFSLETSASTAYLQINNLKNEDTATYFCVRRLAYWGQGTLVTVSA
VL: DIKMTQSPSSMYASLGERVTITCKASQDINSYLSWFQQKPGKSPKTLIFRANRLVDGVPSRFSGSGSGQDYSLTISSLEYEDMGIYYCLQYDEFPLTFGAGTKLEMK
notes: mouse IgG (hybridoma)
On to B6, for which the MFI amounted to 393 MFI with human TMEM106B [1]; 305 MFI with human TMEM106B [2]; 370 MFI with mouse TMEM106B; 301 MFI in the assay with human TMEM106B [3]; 304 MFI in the assay with human TMEM106B [4]; 568 MFI with human TMEM106B [5]. Further, the MFI was 317 MFI with human TMEM106B [6], 554 MFI with human TMEM106B [7], 465 MFI in the assay with human TMEM106B [8] and 492 MFI with human TMEM106B [9].

B7: TM-3 (antibody, V domains shown)
VH: QVTLKESGPGIVQPSQTLSLTCSFSGFSLNTLGRGVGWIRQPSGKGLEWLAKIWWNDDKFYYPALKSRLTISKDTSKNQIFLKIANVDTADSATYYCARIAGGTGAAYWGQGTTLTVSS
VL: DIVMTQAAFSNPVTLGTSASISCRSSKSLLHSNGITYLYWYLQKPGQSPQLLISQMSSLASGVPDRFSSGGSGTDFTLRISRVEAEDVGVFYCAQNLELPWTFGGGTKLELK
For B7, the MFI with human TMEM106B [1] turned out to be 4840 MFI; with human TMEM106B [2] it was 48700 MFI; in the assay with mouse TMEM106B, 1980 MFI; with human TMEM106B [3], 7700 MFI; with human TMEM106B [4] it was 1080 MFI; with human TMEM106B [5], 2690 MFI. The MFI with human TMEM106B [6] was 89100 MFI; with human TMEM106B [7], 1800 MFI; in the assay with human TMEM106B [8] it was 82300 MFI; with human TMEM106B [9], 7670 MFI.

B8: TM-9 (antibody, V domains shown)
VH: EVQLVESGGDLVKPGGSLKLSCVASGFTFSGYGMSWVRQTPDKRLEWVATISSGSFYIYYPDSVKGRLTVSRDNAKNTLYLQMSSLKSEDTAIYYCARQNFYYGCEDYWGQGTTLTVSS
VL: DIVMTQAAFSNPVTLGTSASISCRSSKSLLHSNGITYLYWYLQKPGQSPQLLIYQMSNLASGVPNRFSSSGSGTDFTLRISRVEAEDVGVYYCAQNLELPWTFGGGTKLEIK
In the case of B8, the MFI in the assay with human TMEM106B [1] is 4880 MFI; with human TMEM106B [2] it was 28300 MFI; in the assay with mouse TMEM106B, 2710 MFI; with human TMEM106B [3], 3940 MFI; with human TMEM106B [4], 1540 MFI; with human TMEM106B [5], 2540 MFI. Further, the MFI with human TMEM106B [6] was found to be 62100 MFI; with human TMEM106B [7], 1990 MFI; with human TMEM106B [8] it was 56400 MFI; in the assay with human TMEM106B [9], 7090 MFI.

B9: TM-12 (antibody, V domains shown)
VH: EVQLQQSGAELMRPGASVKLSCTASGFNIQDYYMYWVKQRPEQGLEWIGRIDPEDGDAEYAPKFQGKATMTADTSSNTAYLQLSSLTSEDTAVYYCSTRVIYDGYYRTMDCWGQGTSVTVSS
VL: DVLMTQIPLSLPVSLGDQASISCRSSQTIVHSNGNTYLEWYLKKPGQSPKLLIDKISNRFSGVPDRFSGSGSGTDFTLKISRVEAEDLGVYYCFQGSHVPYTFGGGTKLEIK
Regarding B9, the MFI with human TMEM106B [1] amounted to 3150 MFI; in the assay with human TMEM106B [2], 19700 MFI; in the assay with mouse TMEM106B it was 3040 MFI; in the assay with human TMEM106B [3] it was 3340 MFI; in the assay with human TMEM106B [4], 1330 MFI; with human TMEM106B [5], 2660 MFI. The MFI was found to be 77800 MFI with human TMEM106B [6], 1940 MFI with human TMEM106B [7], 75300 MFI with human TMEM106B [8] and 4950 MFI with human TMEM106B [9].

B10: TM-10 (antibody, V domains shown)
VH: QVQLQQSGAELVKPGASVKISCKGSGYAFSSYWMNWVKQRPGKGLEWIGQIYPGDGDTNYNGKFKGKATLTADKSSTTAYIHLSSLTSEDSAVYFCARWGHYDEAMDDWGQGTSVTVSS
VL: DVVMTQTPLSLPVSLGDQASISCRSSQSLVHSNGKTYLHWYVQKPGQSPKLLIYKISNRFSGVPDRFSGSGSGTDFTLKISRVEAEDLGVYFCSQITHVPWTFGGGTKLESK
For the molecule B10, the MFI with human TMEM106B [1] was determined as 663 MFI; with human TMEM106B [2], 21000 MFI; with mouse TMEM106B, 604 MFI; with human TMEM106B [3], 3360 MFI; with human TMEM106B [4], 328 MFI; with human TMEM106B [5], 596 MFI. In addition, the MFI with human TMEM106B [6] stood at 44400 MFI; with human TMEM106B [7], 823 MFI; with human TMEM106B [8], 36500 MFI; with human TMEM106B [9] it was 1090 MFI.

B11: TM-11 (antibody, V domains shown)
VH: QVQLKQSGPGQVQPSQSLSITCTVSGFSLSDYGVHWVRQSPGKGLEWLGVIWNNGNTDYNAAFISRLSINKDNSKSQVFFKMTSLQADDTAIYYCVRSLRPLHFDYWGQGTTVTVSS
VL: DIVMTQSPSSLTMSVGQKVTMHCKSSQSLLNSNNLQNYLAWYQQKPGQSPTLLVYFASIRESGVPDRFIGSGSGTDFTLTISSVQAEDLADYFCQQHYNTPFTFGSGTKLEIR
B11: the MFI with human TMEM106B [1] was 2870 MFI; with human TMEM106B [2], 16200 MFI; with mouse TMEM106B, 1040 MFI; in the assay with human TMEM106B [3], 4280 MFI; in the assay with human TMEM106B [4] it was 866 MFI; with human TMEM106B [5] it was 1870 MFI. Besides, the MFI in the assay with human TMEM106B [6] came out at 54600 MFI; in the assay with human TMEM106B [7] it was 1340 MFI; with human TMEM106B [8], 57900 MFI; with human TMEM106B [9], 5580 MFI.
